Reference: article doi:10.1101/547208, “A single dose of antibody-1 drug conjugate cures a stage model of African trypanosomiasis” (bioRxiv, 2019)

B1: Tb017 scFv (scFv, V domains shown)
VH: QVQLVQSGAEVKKPGSSVKVSCKASGGTFSSYAISWVRQAPGQGLEWMGGIIPIFGTANYAQKFQGRVTITADESTSTAYMELSSLRSEDTAVYYCARGWWYDLVFDYWGQGTLVTVSS
VL: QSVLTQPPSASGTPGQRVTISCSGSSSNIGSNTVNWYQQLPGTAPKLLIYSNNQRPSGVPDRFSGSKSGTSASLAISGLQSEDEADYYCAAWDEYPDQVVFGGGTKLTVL
notes: The name Tb017 is printed for the IgG1 and its conjugate; source: phage produced from E. coli, phage-containing supernatant
B2: Tb074 scFv (scFv, V domains shown)
VH: QVQLVQSGAEVKKPGSSVKVSCKASGGTFSSYAISWVRQAPGQGLEWMGGIIPIFGTANYAQKFQGRVTITADESTSTAYMELSSLRSEDTAVYYCARGWWHEPGFDYWGQGTLVTVSS
VL: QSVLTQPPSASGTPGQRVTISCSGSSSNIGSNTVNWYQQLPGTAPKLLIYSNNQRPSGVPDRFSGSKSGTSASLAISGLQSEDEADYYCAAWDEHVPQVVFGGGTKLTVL
notes: The name Tb074 is printed for the IgG1 and its conjugates; source: phage produced from E. coli, phage-containing supernatant
B3: Tb086 scFv (scFv, V domains shown)
VH: QVQLVQSGAEVKKPGSSVKVSCKASGGTFSSYAISWVRQAPGQGLEWMGGIIPIFGTANYAQKFQGRVTITADESTSTAYMELSSLRSEDTAVYYCARGWYYHGGIDYWGQGTLVTVSS
VL: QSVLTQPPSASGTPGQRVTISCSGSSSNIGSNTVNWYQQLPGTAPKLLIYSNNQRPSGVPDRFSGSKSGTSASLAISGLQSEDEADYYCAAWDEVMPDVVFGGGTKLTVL
notes: The name Tb086 is printed for the IgG1; source: phage produced from E. coli, phage-containing supernatant
B4: Tb085 scFv (scFv, V domains shown)
VH: QVQLVQSGAEVKKPGSSVKVSCKASGGTFSSYAISWVRQAPGQGLEWMGGIIPIFGTANYAQKFQGRVTITADESTSTAYMELSSLRSEDTAVYYCAREGWDYGWFDFWGQGTLVTVSS
VL: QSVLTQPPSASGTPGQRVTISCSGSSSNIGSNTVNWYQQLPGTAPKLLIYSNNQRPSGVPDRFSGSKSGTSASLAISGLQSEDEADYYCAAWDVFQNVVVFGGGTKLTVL
notes: The name Tb085 is printed for the IgG1 and its conjugates; source: phage produced from E. coli, phage-containing supernatant
B5: Tb078 scFv (scFv, V domains shown)
VH: QVQLVQSGAEVKKPGSSVKVSCKASGGTFSSYAISWVRQAPGQGLEWMGGIIPIFGTANYAQKFQGRVTITADESTSTAYMELSSLRSEDTAVYYCARGWIYEFIIDAWGQGTLVTVSS
VL: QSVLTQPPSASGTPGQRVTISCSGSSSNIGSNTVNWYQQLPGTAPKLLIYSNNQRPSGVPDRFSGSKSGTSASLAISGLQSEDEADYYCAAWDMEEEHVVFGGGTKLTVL
notes: The name Tb078 is printed for the IgG1 and its conjugate; source: phage produced from E. coli, phage-containing supernatant
B6: Tb073 scFv (scFv, V domains shown)
VH: QVQLVQSGAEVKKPGSSVKVSCKASGGTFSSYAISWVRQAPGQGLEWMGGIIPIFGTANYAQKFQGRVTITADESTSTAYMELSSLRSEDTAVYYCARGWYDMGDFDMWGQGTLVTVSS
VL: QSVLTQPPSASGTPGQRVTISCSGSSSNIGSNTVNWYQQLPGTAPKLLIYSNNQRPSGVPDRFSGSKSGTSASLAISGLQSEDEADYYCAAWDWHHGHVVVFGGGTKLTVL
notes: The name Tb073 is printed for the IgG1 and its conjugate; source: phage produced from E. coli, phage-containing supernatant

What follows are binders tested against T1, Recombinant HpHbR N-terminal domain (Trypanosoma brucei brucei (strain not …, biotin (biotinylated form on streptavidin-coated plates; a non-biotinylated form was coated on Maxisorp plates)) (assay: ELISA; phage ELISA: 10 ug/ml HpHbR NTD coated on Nunc Maxisorp plates or 5 ug/mL biotinylated NTD on streptavidin-coated plates overnight at 4°C; blocked phage supernatants 1 hr at room temperature; bound phage detected with anti-M13 HRP antibody; BSA and streptavidin in parallel). Details: one partner purified.
T1 construct: also called HpHbR NTD; TbHpHbR NTD; source: recombinant, expressed as previously described (34)
B1: binds.
B2: binds.
B3: binds.
B4: binds.
B5: binds.
B6: binds.
